Results on 30 sequences are retold here after the nanobody polyreactivity screen of Harvey et al. (2022).

The nature of the data set: yeast display, Sf9 membrane polyspecificity reagent, FACS + sequencing; frameworks hold sequencing errors. In outline:
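Polyreactivity labels are assigned by the sorting gate from which each nanobody was recovered. The gates were low and high (top ~1%), set on anti-HA fluorescence for expression and streptavidin fluorescence for reagent binding. Before sorting, galactose-induced (36–48 hours) yeast display cells were stained for 1 hour at 4 °C with 10% biotinylated, detergent-solubilized Sf9 membrane reagent.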
For the sequence “QVQLVESGGGLVQAGGSLRLSCAATGRTFGVNAMAWYRQAPGKESELVASIRWNGGSTYYADSVKGRFTISRDNAKNTVYLQMNSLKPEDTAVYYCNAVRRYRSREFDYWGQGSQVTVSS”, the “polyreactivity (PSR sort gate)” value is given as “low polyreactivity”.

In the case of “QVQLVESGGGLVQAGGSLRLSCAATGRTFINYAMGWYRQAPGKERALVAAITTGGRTNYADSVKGRFTISRDNAKNTVYLQMNSLKPEDTAVFYCAADRYYWGRYTLNYWGQGTQVTVSS”, the “polyreactivity (PSR sort gate)” value is “low polyreactivity”.

Take “QVQLVESGGGLVQAGGSLRLSCAATGRTFSTNAMGGSRQAPGKERELVAAITSSGGRTYYADSVKGRFTISRDNAKNTVYLQMNSLKPEDTAVYYCAAYPWYYRGYWFGYWGQGTQVTVSS”: the “polyreactivity (PSR sort gate)” value was “high polyreactivity”.

Consider “QVQLVESGGGLVQAGGSLRLSCAATGRTLKYNAMGRYRKAPGKERELVAAISYSGSSTYYADSVKGRFTISRDNAKNTVYLQMHSLKPEDTAVYYCNTARPTAAYDYWGQGTQVTVSS”, for which the “polyreactivity (PSR sort gate)” value is “low polyreactivity”.

Consider “QVQLVESGGGLVQAGGSLRLSCAATGSIFAVYAMGWYRQAPGKERELVARITRGGGSTYYADSVKGRFTISRDNAKNTVYLQMNSLKPEDTAVYYCAAARWSQYRTWMNYWGQGTQVTVSS”, for which the “polyreactivity (PSR sort gate)” value is listed as “high polyreactivity”.

For “QVQLVESGGGLVQAGGSLRLSCAATGSIFEGYAMGWYRQAPGKERELVARITSDDDSTYYADSVKGRFTISRDNAKNSVYLQMNSLKPEDTAVYYCNADYYWTSLAMDSWGQGTQVTVSS”, the “polyreactivity (PSR sort gate)” value is “low polyreactivity”.

Consider “QVQLVESGGGLVQAGGSLRLSCAATGSIFNIYTMGRYRQAPGKERELVAVITSSGGKYYADSLKGRFTISRDNAMNTVYLQMNSLKPEDTAVYFCAARRRPYSPHLGYWGQGTQVTVSS”, for which the “polyreactivity (PSR sort gate)” value is on record as “high polyreactivity”.

As to “QVQLVESGGGLVQAGGSLRLSCAATGSIFPANVMGWYRQAPGKERELVASINSGDDTNYADSVKGRFTISRDNAKNTVYLQMNSLKPEDTAVYYCATGDWYPYGDYIYDYWGQGTQVTVSS”, the “polyreactivity (PSR sort gate)” value is given as “low polyreactivity”.

For the sequence “QVQLVESGGGLVQAGGSLRLSCAATGSIFVPNTMGWYRQAPGKERELVADINSDTGRTYYADSVKGRFTISRDNAKNTVYLQMNSLKPEDTAVYYCAAEWYSFWSSVEYDYWGQGTQVTVSS”, the “polyreactivity (PSR sort gate)” value is recorded as “low polyreactivity”.

For the sequence “QVQLVESGGGLVQAGGSLRLSCAATGSNFTGNAMVWYRQAPGKERELVAAISRSGGSTYYADSVKGRYTISRDNAKNTVYLQMISLKPEDTAVYYCAAYRTHGPPRAIRFDYWGQGTQVTVSS”, the “polyreactivity (PSR sort gate)” value is listed as “high polyreactivity”.

For “QVQLVESGGGLVQAGGSLRLSCAATGSTFGPYVMGWYRQAPGKERELVAVISGGSTDYADSVKGRFTISRDNAKNTVYLQMNTLKPEDTAVYYCNAVLYVQDRLTRVDYDYWGQGTQVTVSS”, the “polyreactivity (PSR sort gate)” value is recorded as “high polyreactivity”.

For “QVQLVESGGGLVQAGGSLRLSCAATGSTFVYYALGWYRPAPGKERELVAAITASGGGTYYADSVKGRFTISRDNAKNTVYLQMNSLKPEDTAVYYCNRGYDYWGQGTQVTGSS”, the “polyreactivity (PSR sort gate)” value is listed as “low polyreactivity”.

Consider “QVQLVESGGGLVQAGGSLRLSCAATGSTFYRNAMGWYRQAPGKEREFVAAISFRGGGTYADSVKGRFTISRDNAKNTVFLQMNSLKPEDTAVYYCADDHLSYRRRYEYWGQGTQVTVSS”, for which the “polyreactivity (PSR sort gate)” value is given as “low polyreactivity”.

As for “QVQLVESGGGLVQAGGSLRLSCAAWSIFYLNAMGWYRQAPGKERELVAAISSAGSTYYADSVKGRFTISRDNAKNTVYLQMNSLKPEDTAVYYCAAYWYDSPGVTEIWYDYWGQGTQVTVSS”, the “polyreactivity (PSR sort gate)” value is listed as “low polyreactivity”.

In the case of “QVQLVESGGGLVQAGGSLRLSCAAYAMGWYRQAPGKERELVAAISSSGGSTYYADSVKGRFTISRDNAKNTVYLQMNSLKPEDTAVYYCARDPDTYFFPPTGYYTSGFDSWGQGTQVTVSS”, the “polyreactivity (PSR sort gate)” value is recorded as “low polyreactivity”.

In the case of “QVQLVESGGGLVQAGGSLRLSCAAYGFIFWYYDMGWYRQAPGKETELVAGITSGGSTNYEDSVKGRFTISRDNATNTVYLQMNRLKPEDTAVYYCAATYYGYHIRDDYWGQGTLVTVSS”, the “polyreactivity (PSR sort gate)” value is “low polyreactivity”.

On to “QVQLVESGGGLVQAGGSLRLSCAAYGFTFAAYSMGWYRQAPGKEREFVAAITSRDGTTYYADSVKGRFTISGYNAKNTVYLQMNSLKPEDTAVFYCAKDHFNWGVSEVDSWRQGTQVTVSS”, for which the “polyreactivity (PSR sort gate)” value is given as “low polyreactivity”.

In the case of “QVQLVESGGGLVQAGGSLRLSCAAYGFTIYYYTMGWYRQAPGKERELFAAISHSGSSTYYADSVKGRFTISRDNAKKTVNLQMNSLKPEDTAVYYCAASRSKNSALGGRVSIGDYWGQGTQVTVSS”, the “polyreactivity (PSR sort gate)” value is “high polyreactivity”.

As to “QVQLVESGGGLVQAGGSLRLSCAAYGGTFNGNTMGWYRQAPGKERELVAVIDWSGGSTYYADSVKGRFTISRDNAKNTVYLQMNSLKPEDTAVYYCNADSDAQFREPKGLYYWGQGTQVTVSS”, the “polyreactivity (PSR sort gate)” value was “low polyreactivity”.

Take “QVQLVESGGGLVQAGGSLRLSCAAYGIIFAYNAMGWYRQAPGKERELVATITDSGGSTSYADSEKGRFTISRDNAKNTVYLQMNSLKPEDTAVYYCAVLPVYWYWRNYVYLSGYDYWGQGTQVTVSS”: the “polyreactivity (PSR sort gate)” value is reported as “low polyreactivity”.

In the case of “QVQLVESGGGLVQAGGSLRLSCAAYGIIFRLKARGSNRQSPGKERELVAAITRRGGTTYYADSVKGRFTISRDNAKYTVYLQMNSLKPEDTAVFFCNTYYYWQYDWGQGTQVSVSS”, the “polyreactivity (PSR sort gate)” value is “high polyreactivity”.

In the case of “QVQLVESGGGLVQAGGSLRLSCAAYGITFPSYTMGWYRQAPGKERELVATIRNGGSTYYADSVKGRFTISRDNAKNTVYLQMNSLKPEDTAVYYCAAKDTGYGYGVPRLDYWGQGTQVTVSS”, the “polyreactivity (PSR sort gate)” value was “low polyreactivity”.

Turning to “QVQLVESGGGLVQAGGSLRLSCAAYGITFPVNAMGWYRQAPGKERELVAGIYFSGDSTYYADSVKGRFTISRDNAKNTVYLQMKSLKPEDTAVYYCAAEVWAFVYYFEYSTMYYWGHGTQVTVSS”, the “polyreactivity (PSR sort gate)” value is “low polyreactivity”.

For the sequence “QVQLVESGGGLVQAGGSLRLSCAAYGITFVPNAMGWYRQAPGKERELVAAITSGDSTNYADSVKGRFTISRDNAKNTVYLQMNSLKPDDTAVYYCAADSWAQRPNQGRVSLHYYWGQCTQVTVSS”, the “polyreactivity (PSR sort gate)” value is reported as “low polyreactivity”.

In the case of “QVQLVESGGGLVQAGGSLRLSCAAYGITFYWYAMGRYRQAPGKEWELVAGISQSGSRTYYADSVKGRFTISRDNAKNTVYLQMNSLKPEDTAVYYCAARVRWSPTRTFEYWGQGTQVTVSS”, the “polyreactivity (PSR sort gate)” value is on record as “high polyreactivity”.

With “QVQLVESGGGLVQAGGSLRLSCAAYGLIFTHNTMGWYRQAPGKERELVAAITTSGGTTYYADSVKGRFTISRDNAKNTVYLQMNSLKPEDTAVYYCNALYLSTRSGDYWGQGTQVTVSS”, the “polyreactivity (PSR sort gate)” value is listed as “high polyreactivity”.

As to “QVQLVESGGGLVQAGGSLRLSCAAYGLTFCLNAMGWYRQAPGKERYLVAAIRYSGGGTYADSVKGRFTISRDNAMNTVYLQMISLKPEDTAVYYCAALYYLGYPQFDYWGQGTQVTVSS”, the “polyreactivity (PSR sort gate)” value was “low polyreactivity”.

As to “QVQLVESGGGLVQAGGSLRLSCAAYGLTFDSYAMGWYRQAPGKERELVAAISYGGGSTNFADSVKGRFTISRDNAKNTVYLQLNSLKPVDTAVYYCGAEPGYYDEYGYWGQGTQVTVSS”, the “polyreactivity (PSR sort gate)” value is recorded as “low polyreactivity”.

Regarding “QVQLVESGGGLVQAGGSLRLSCAAYGRIFDNNAMGWYRQAPGKERELVAAIDWRGGSTDYADSVKGRFTISRDNAKNTVYLQMNSLKPEDTAVYYCVAGHVPYWHGNSYDYWGQGTQVTVSS”, the “polyreactivity (PSR sort gate)” value is recorded as “low polyreactivity”.

With “QVQLVESGGGLVQAGGSLRLSCAAYGRIFYYNAMGWFRQAPGKERELVASIDNGGSTNYADSVKGRFTISRDNAKNTVYLQMNSLKPEDTAVYYCNVDLYYEVSHVFLYEYDYWGQGTQVTVSS”, the “polyreactivity (PSR sort gate)” value was “low polyreactivity”.
